Consider 2 molecules from article PMC1885638 (Nucleic Acids Research, 2007).

The test addresses Human AP endonuclease 1 (human, UniProt P27695 1-318). Description: pull-down.

Chain of Human AP endonuclease 1 (P27695 whole entry): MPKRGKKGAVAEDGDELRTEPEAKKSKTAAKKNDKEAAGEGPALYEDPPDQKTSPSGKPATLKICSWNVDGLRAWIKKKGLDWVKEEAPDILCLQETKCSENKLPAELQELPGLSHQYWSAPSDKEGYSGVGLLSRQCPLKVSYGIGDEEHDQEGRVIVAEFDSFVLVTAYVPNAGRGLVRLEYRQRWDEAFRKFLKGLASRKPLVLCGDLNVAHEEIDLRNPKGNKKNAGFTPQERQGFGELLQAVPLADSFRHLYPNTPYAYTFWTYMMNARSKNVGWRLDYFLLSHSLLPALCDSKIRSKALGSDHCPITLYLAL

B1: his-Hus1 (individual subunit) (natural protein, human, UniProt O60921 1-280, looked up)
chain: MKFRAKIVDGACLNHFTRISNMIAKLAKTCTLRISPDKLNFILCDKLANGGVSMWCELEQENFFNEFQMEGVSAENNEIYLELTSENLSRALKTAQNARALKIKLTNKHFPCLTVSVELLSMSSSSRIVTHDIPIKVIPRKLWKDLQEPVVPDPDVSIYLPVLKTMKSVVEKMKNISNHLVIEANLDGELNLKIETELVCVTTHFKDLGNPPLASESTHEDRNVEHMAEVHIDIRKLLQFLAGQQVNPTKALCNIVNNKMVHFDLLHEDVSLQYFIPALS
Take B1: the binding result is given as “binds”.

B2: his-Rad1 (individual subunit) (natural protein, human, UniProt O60671 1-282, looked up)
chain: MPLLTQQIQDEDDQYSLVASLDNVRNLSTILKAIHFREHATCFATKNGIKVTVENAKCVQANAFIQAGIFQEFKVQEESVTFRINLTVLLDCLSIFGSSPMPGTLTALRMCYQGYGYPLMLFLEEGGVVTVCKINTQEPEETLDFDFCSTNVINKIILQSEGLREAFSELDMTSEVLQITMSPDKPYFRLSTFGNAGSSHLDYPKDSDLMEAFHCNQTQVNRYKISLLKPSTKALVLSCKVSIRTDNRGFLSLQYMIRNEDGQICFVEYYCCPDEEVPESES
In the case of B2, the binding result is on record as “binds”.
